From US20120201794A1

Legend:
[1] = biological target: C46 protein (membrane anchored fusion inhibitor derived from the C-terminal heptad repeat of HIV gp41 fused with a human immunoglobulin hinge region and a CD34 transmembrane domain) (HIV gp41 heptad repeat fused to human immunoglobulin hinge and CD34 transmembrane domain); assay: flow cytometry, 2F5 staining of Molt4/CCR5 cells transduced with the C46 lentiviral construct (untransduced background 344.6)
[2] = biological target: C46 protein (membrane anchored fusion inhibitor derived from the C-terminal heptad repeat of HIV gp41 fused with a human immunoglobulin hinge region and a CD34 transmembrane domain) (HIV gp41 heptad repeat fused to human immunoglobulin hinge and CD34 transmembrane domain); assay: flow cytometry, 2F5 staining of Molt4/CCR5 cells transduced with the sh5/C46 lentiviral construct (untransduced background 344.6)

## 2F5 antibody
[1]
  MFI: 1450
[2]
  MFI: 1170
